This is an account of results in patent US20210347873A1 (SHANGHAI PHARMAEXPLORER, published 2021).

Test [1] has as its target human BLyS (full length, arginine to histidine at position 132) on CHO-K1 cells (human) (UniProt Q9Y275). The test is described as follows: flow cytometry, CHO-K1 hBLyS cells, antibody 13.3 nM.
Test [2] deals with biotinylated hBLyS-ECD (human) (UniProt Q9Y275). Description: blocking ELISA: biotinylated hBLyS-ECD on coated BAFF R, antibody 0.0064 nM.
The target is the same in test [3]. Description: ELISA, biotinylated hBLyS-ECD captured on streptavidin; antibody 0 nM (blank).
The target of test [4] is cynomolgus BLyS (full length, arginine to histidine at position 132) on CHO-K1 cells (cynomolgus). The test is described as follows: flow cytometry, CHO-K1 cynoBLyS cells, antibody 0 nM.
Sequence of cynomolgus BLyS (full length, arginine to histidine at position 132) on CHO-K1 cells (cynomolgus) (Q9Y275 other isoform, or with tags, fused parts or gaps limits assumed): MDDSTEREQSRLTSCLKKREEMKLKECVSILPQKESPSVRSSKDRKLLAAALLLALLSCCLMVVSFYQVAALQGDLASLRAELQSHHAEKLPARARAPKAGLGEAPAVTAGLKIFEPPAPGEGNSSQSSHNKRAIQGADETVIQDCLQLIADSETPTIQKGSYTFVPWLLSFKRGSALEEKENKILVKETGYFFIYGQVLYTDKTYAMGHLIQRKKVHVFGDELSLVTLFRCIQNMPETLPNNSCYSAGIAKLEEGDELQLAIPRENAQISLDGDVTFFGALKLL
The target in test [5] is biotinylated hBLyS-ECD (human) (UniProt Q9Y275). The test is described as follows: ELISA, biotinylated hBLyS-ECD captured on streptavidin; antibody 0.534 nM.
The target is the same in test [6]. Description: ELISA, biotinylated hBLyS-ECD captured on streptavidin; antibody 0.0213 nM.
For test [7], the target named is human BLyS (full length, arginine to histidine at position 132) on CHO-K1 cells (human) (UniProt Q9Y275). The test is described as follows: flow cytometry, CHO-K1 hBLyS cells, antibody 0.107 nM.
Sequence of human BLyS (full length, arginine to histidine at position 132) on CHO-K1 cells (human) (Q9Y275 whole entry R130H, the tested form may be a part): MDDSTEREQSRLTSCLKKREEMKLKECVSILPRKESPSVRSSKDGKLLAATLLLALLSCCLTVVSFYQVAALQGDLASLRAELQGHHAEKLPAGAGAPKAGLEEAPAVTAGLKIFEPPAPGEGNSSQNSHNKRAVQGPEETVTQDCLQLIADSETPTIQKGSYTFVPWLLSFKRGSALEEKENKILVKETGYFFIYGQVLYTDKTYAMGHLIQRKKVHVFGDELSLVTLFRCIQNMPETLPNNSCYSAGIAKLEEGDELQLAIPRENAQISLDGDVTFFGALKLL
The target in test [8] is cynomolgus BLyS (full length, arginine to histidine at position 132) on CHO-K1 cells (cynomolgus). Description: flow cytometry, CHO-K1 cynoBLyS cells, antibody 0.00427 nM.
The target of test [9] is human BLyS (full length, arginine to histidine at position 132) on CHO-K1 cells (human) (UniProt Q9Y275). Description: flow cytometry, CHO-K1 hBLyS cells, antibody 0.00427 nM.
The target of test [10] is cynomolgus BLyS (full length, arginine to histidine at position 132) on CHO-K1 cells (cynomolgus). Description: flow cytometry, CHO-K1 cynoBLyS cells, antibody 2.67 nM.
For test [11], the target named is T1, biotinylated hBLyS-ECD (human, UniProt Q9Y275 134-285, biotinylated with Biotin-X-X-NHS (molar ratio 7:1), sites not stated).
T1 construct: The hBLyS-ECD of Embodiment 1 after biotinylation (Embodiment 2); also called biotinylated immunogen; BLyS protein; not shown: His tag of the pCPC vector
T1 sequence (Q9Y275 134-285): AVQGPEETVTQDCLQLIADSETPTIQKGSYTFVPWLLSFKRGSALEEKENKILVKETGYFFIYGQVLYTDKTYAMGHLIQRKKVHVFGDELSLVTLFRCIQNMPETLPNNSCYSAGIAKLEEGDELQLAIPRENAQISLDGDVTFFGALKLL
The test is described as follows: ELISA: biotinylated hBLyS-ECD captured on streptavidin, antibody titrated, HRP secondary antibody. How it is done: Streptavidin was first diluted to a final concentration of 1.0 μg/mL with PBS, and then 50 μL of diluted streptavidin per well was aliquoted into 96-well ELISA plate, which was subsequently sealed with plastic film and incubated at 4° C. overnight. On the next day the plate was washed four times with the plate washing buffer [PBS buffer containing 0.05% (v/v) Tween20] and added with the blocking solution [PBS buffer containing 0.05% (v/v) Tween20 and 1% (w/w) BSA] and blocked for 2 hours at 37° C. The blocking solution was removed, the biotinylated hBLyS-ECD prepared in Embodiment 2 was diluted with PBS to a final concentration of 50 ng/mL and then aliquoted into the 96-well ELISA plate at 50 μL per well and incubated for 1 hour at 37° C. After rinsing the plate four times with the plate washing buffer [PBS buffer containing 0.05% (v/v) Tween20], 100 μl of the purified lead antibody harvested in Embodiment 1 and 2 was pipetted into each well. After incubation for 1 hour at 37° C., the plate was rinsed four times with the plate washing buffer [PBS buffer containing 0.05% (v/v) Tween20]. HRP-labeled (horseradish peroxidase) secondary antibody (purchased from Sigma) was added in and incubated at 37° C. for 1 hour. […] A₄₅₀ₙₘ values were read via an ELISA plate reader (SpectraMax M5e purchased from Molecular Devices) and the results were shown in FIGS. 5A-5B and Table 10.

Test [12] concerns the target T2, biotinylated hBLyS-ECD (human, UniProt Q9Y275 134-285, biotinylated with Biotin-X-X-NHS (molar ratio 7:1); sites not stated).
T2 construct: also called biotinylated immunogen; biotinylated hBLvS-ECD
Description: BAFF R-coated ELISA, biotinylated hBLyS-ECD bound in presence of antibody 0.0064 nM.

Test [13] deals with T2, biotinylated hBLyS-ECD. The test is described as follows: BAFF R-coated ELISA, biotinylated hBLyS-ECD bound in presence of antibody 0 nM.
In test [14] the target is T2, biotinylated hBLyS-ECD. The test is described as follows: BAFF R-coated ELISA, biotinylated hBLyS-ECD bound in presence of antibody 4 nM.
The target of test [15] is T2, biotinylated hBLyS-ECD. Description: ELISA on captured biotinylated hBLyS-ECD; antibody 13.3 nM.
The target in test [16] is T2, biotinylated hBLyS-ECD. The test is described as follows: ELISA on captured biotinylated hBLyS-ECD; antibody 0.0213 nM.
Test [17] has as its target T2, biotinylated hBLyS-ECD. Description: ELISA on captured biotinylated hBLyS-ECD; antibody 13.3 nM. This is another data set of the same source.
The target in test [18] is T2, biotinylated hBLyS-ECD. Description: ELISA on captured biotinylated hBLyS-ECD; antibody 66.7 nM.
For test [19], the target named is T2, biotinylated hBLyS-ECD. The test is described as follows: ELISA on captured biotinylated hBLyS-ECD; antibody 2.67 nM.
For test [20], the target named is T2, biotinylated hBLyS-ECD. Description: ELISA on captured biotinylated hBLyS-ECD; antibody 0.0213 nM. The source holds these as a separate data set.

T2 sequence (Q9Y275 134-285): as above
Sequence of biotinylated hBLyS-ECD (human) (Q9Y275 134-285): as above

Regarding hIgG Control (antibody), the MFI in test [1] turned out to be 35.1 MFI; in test [4] it was 20.7 MFI; in [7], 32.9 MFI; in test [8], 22 MFI; in [9], 32.3 MFI; in [10], 22.7 MFI. For the same molecule, the OD450 nm in test [2] turned out to be 1.14 OD450 nm; in test [3], 0.103; in test [5] it was 0.0916; in [6] it was 0.111.

For the molecule mIgG Control (antibody), the MFI is 31.7 MFI in test [1]; 19.8 MFI in test [4]; 31.6 MFI in test [7]; 20.4 MFI in test [8]; 30.9 MFI in test [9]; 21.2 MFI in test [10]. Further, the OD450 nm worked out at 1.4 OD450 nm in test [2], 0.0574 in test [3], 0.0594 in test [5] and 0.0595 in test [6].

B1: L1D12 (antibody, human IgG1, V domains shown)
VH: QVQLVQSGGGLVQPGGSLRLSCAASGFTVSSNYMSWVRQAPGKGLEWVSVIYSGGSTYYADSVKGRFTISRDNSKNTLYLQMNSLRAEDTAVYYCARGFHDILTGYGMDVWGQGTTVTVSS
VL: SSELTQDPAVSVALGQTVRITCQGDSLRNYYAGWYQQKPGQAPVLVIYGKNNRPSGIPDRFSGSSSGNTASLTITGTQAEDEADYYCSSRDNSGTHLVEFGGGTKLTVL
notes: also called LID12
In the case of B1, the “EC50 (read off the curve)” value in the test with biotinylated hBLyS-ECD [11] was about 0.1 nM.

B2: L9G7 (antibody, human IgG1, V domains shown)
VH: QIQLVQSGAEVKKPGASVKVSCKASGYTFTSYGISWVRQAPGQGLEWMGWISAYNGNTNYAQKLQGRVTMTTDTSTSTAYMELRSLRSDDTAVYYCARTYYDILTGYYYYGMDVWGQGTTVTVSS
VL: EIVLTQSPGTLSLSPGERATLSCRTSQSVDTYLAWYQQKPGQAPRLLIYDASNRATGIPARFSGSGSGTDFTLTISSLEPEDFAVYYCQQRSNWPLTFGGGTKVEIK
For the molecule B2, the “EC50 (read off the curve)” value in the test with biotinylated hBLyS-ECD [11] was about 0.2 nM.

B3: c8E7D9C7F5 (antibody, V domains shown)
VH: QVQLQQSGVELARPGASVKLSCKASGYTFTSYGISWVKQRTGQALEWIGEIYPRSGNTYYNEKFKGKATLTADKSSSTAYMELRSLTSEDSAVYFCARSGPITTLVATDYGMDYWGQGTSVTVSS
VL: DIVLTQSPASLAVSLGQRATISCRASKSVSTSSYSYMHWYQQKPGQPPKLLIKFASNLESGVPARFSGSGSGTDFTLNIHPVEEEDAATYYCQHSREFPYTFGGGTKLEIK
notes: also called chimeric antibody c8E7D9C7F5
Take B3: the OD450 nm came out at 2.01 OD450 nm in the test with biotinylated hBLyS-ECD [12]; 1.95 OD450 nm in the test with biotinylated hBLyS-ECD [13]; 1.04 OD450 nm with biotinylated hBLyS-ECD [14]; 3.32 OD450 nm with biotinylated hBLyS-ECD [15]; 0.574 OD450 nm with biotinylated hBLyS-ECD [16]; 2.37 OD450 nm in the test with biotinylated hBLyS-ECD [17]. The OD450 nm came to 2.32 OD450 nm with biotinylated hBLyS-ECD [18], 2.21 OD450 nm in the test with biotinylated hBLyS-ECD [19] and 0.508 OD450 nm with biotinylated hBLyS-ECD [20].

B4: c97A3C2H4 (antibody, V domains shown)
VH: EVKLVESGGGLVQPGGSLKLSCAASGFTFSTYTMSWVRQTPEKRLEWVAYISYGGGSTSYPDTVKGRFTISRDNAKNTLYLQMSSLKSEDTAIYYCTRHVTVVENSMDYWGQGTSVTVSS
VL: DILLTQSPDILSVSPGERVSFSCRASQSIGTSIHWYQQRTNGSPRLLIKYVSESFSGTPSRFSGSGSGTAFTLTINSVESEDIADYYCQQTHSWPWTFGGGTKLEIK
notes: also called chimeric antibody c97A3C2H4
Take B4: the OD450 nm with biotinylated hBLyS-ECD [12] was determined as 1.96 OD450 nm; with biotinylated hBLyS-ECD [13], 1.91 OD450 nm; in the test with biotinylated hBLyS-ECD [14], 1.07 OD450 nm; in the test with biotinylated hBLyS-ECD [15], 3.33 OD450 nm; with biotinylated hBLyS-ECD [16], 0.936 OD450 nm; with biotinylated hBLyS-ECD [17], 2.34 OD450 nm. For the same molecule, the OD450 nm stood at 2.41 OD450 nm with biotinylated hBLyS-ECD [18], 2.25 OD450 nm with biotinylated hBLyS-ECD [19] and 0.374 OD450 nm with biotinylated hBLyS-ECD [20].
